Assays:
[1] = target: T1, FGF-8 (Homo sapiens, UniProt P55075); test: Inhibition by antibody of FGF-8-promoted degradation of extracellular matrix of rabbit chondrocytes; format: cell-based; conditions: FGF-8 100 ng/mL, 48 hours, 1, 3 or 10 μg/mL tested
T1 construct: purchased R & D
T1 sequence (P55075 23-215 isoform P55075-3 limits assumed): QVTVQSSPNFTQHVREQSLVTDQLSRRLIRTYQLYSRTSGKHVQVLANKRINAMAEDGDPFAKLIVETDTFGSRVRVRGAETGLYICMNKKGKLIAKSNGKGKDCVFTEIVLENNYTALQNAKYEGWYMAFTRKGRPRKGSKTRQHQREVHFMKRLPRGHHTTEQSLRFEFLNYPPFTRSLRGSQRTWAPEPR
Method: Rabbit articular chondrocytes were isolated from both knees and shoulders of 3-week-old New Zealand white female rabbits and cultured according to the method of Tamura et al. (Tamura T. et al., Eur. J. Pharmacol., 419, 269-274, 2001). That is, the joints of both knees and the joints of both shoulders were isolated to collect the epiphyseal cartilages. […] The culture solution was removed, and the amount of glycosaminoglycan in extracellular matrix remaining on the plate was measured by the dimethymethylene blue (DMMB) method (Chandrasekhar S. et al., Anal. Biochem. 161 103-108, 1987). […] To 75 μL of this digested solution were added 25 μL of a guanidine hydrochloride buffer (2.88 mol/L guanidine hydrochloride, 50 mmol/L sodium acetate, pH 6.8) and 200 μL of a DMMB solution, and the absorbance was measured at 530/590 nm. The concentration of glycosaminoglycan of each sample was calculated from the absorbance of chondroitin sulfate (derived from whale cartilages, manufactured by Seikagaku Kogyo) used as a standard. Three experiments were performed for each condition and the mean values and the standard error were calculated.

[2] = target: T1, FGF-8; test: Inhibition by antibody of FGF-8-promoted growth of human synovial cells; format: cell-based; conditions: FGF-8 500 ng/mL
Method: Rabbit synovial cells were collected by the method of Hamilton et al. (Hamilton J. A. and Slywka J., J. Immunol. 126, 851-855, 1981). The isolated synovial cells were suspended in RPMI 1640 medium comprising 10 vol % FBS (FBS-comprising RPMI 1640 medium is hereinafter referred to as FBS/RPMI 1640), and 10,000 cells was inoculated at each well of a 96-well culture plate. After 24 hours of the culturing, the culture medium of each well was removed, and 200 μL of 0.2 vol % FBS/RPMI 1640 (non-stimulated group) or 0.2 vol % FBS/RPMI 1640 comprising FGF-8 (1, 10 or 100 ng/mL) was added. […] The culturing was further performed for 24 hours, and the radioactivity of [^3H]thymidine incorporated in the cells was measured using a liquid scintillation counter (1205 Beta Plate, manufactured by Perkin Elmer Life Science Japan). Six experiments were performed for each condition, and the mean values and the standard error were calculated.
The same experiment as in Example 3 was performed using human synovial cells derived from the rheumatoid arthritis patient (procured from Toyobo). […] Six experiments were performed for each condition, and the mean values and the standard error were calculated.

antibody concentration at which the promotion of degradation of extracellular matrix of the cartilage with FGF-8 was significantly inhibited [1]: ≥ 3 µg/mL | antibody concentration from which the FGF-8-dependent incorporation of [3H]thymidine was significantly inhibited [2]: ≥ 1 µg/mL
B1: KM1334: anti-FGF-8 neutralizing monoclonal antibody produced by hybridoma KM1334 (FERM BP-5451), mouse IgG1 subclass (antibody, V domains shown)
VH: QVQLQQSGAEVARPGASVKLSCKASGYTFTDYYLNWVKQRSGQGLEWIGEIDPGSDSIYYNENLEGRATLTADKSSSTAYMQLNSLTSEDSAVYFCARYGYSRYDVRFVYWGQGTLVTVST
VL: DVLMTQTPLSLPVSLGDQASISCRSSQSLVHSNGRTYLEWYLQKPGQSPKVLIYKVSNRISGVPDRFSGSGSGTDFTLKISRVEAEDLGVYFCFQGSHVPYTFGGGTKLEIK

— patent publication US7708999B2, “Remedies for arthritis” (Kyowa Hakko Kirin Co., Ltd., priority 2001, dated 2010)
